# Square brackets hold non-standard residues; d marks the D form.
# Target: Aβ42 (UniProt P05067 672-713)
# Assay: cell-based or functional assay
# Aβ42, sequence (P05067 672-713 limits assumed): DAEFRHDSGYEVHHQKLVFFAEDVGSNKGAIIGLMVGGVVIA
Binder,"% inhibition of fibril formation (ThT), AP:Aβ42 1:1","% inhibition of fibril formation (ThT), AP:Aβ42 1:10","% inhibition of fibril formation (ThT), AP:Aβ42 1:100"
Ac-RGE[dL]N[dY]F[dW]MNECYGW[dT]M[dN]M[dR]MGK-NH2 (also: homodimer: Cys12 disulfide-bonded to Cys12 of other copy) [AP537d],90.2%,82.3%,72%
Ac-RGE[dL]N[dY]F[dW]MNECYGW[dT]M[dN]M[dR]MGK-NH2 (SMILES CSCC[C@H](NC(=O)[C@@H](CCCNC(=N)N)NC(=O)[C@H](CCSC)NC(=O)[C@@H](CC(N)=O)NC(=O)[C@H](CCSC)NC(=O)[C@H](NC(=O)[C@H](Cc1c[nH]c2ccccc12)NC(=O)CNC(=O)[C@H](Cc1ccc(O)cc1)NC(=O)[C@H](CS)NC(=O)[C@H](CCC(=O)O)NC(=O)[C@H](CC(N)=O)NC(=O)[C@H](CCSC)NC(=O)[C@@H](Cc1c[nH]c2ccccc12)NC(=O)[C@H](Cc1ccccc1)NC(=O)[C@@H](Cc1ccc(O)cc1)NC(=O)[C@H](CC(N)=O)NC(=O)[C@@H](CC(C)C)NC(=O)[C@H](CCC(=O)O)NC(=O)CNC(=O)[C@H](CCCNC(=N)N)NC(C)=O)[C@H](C)O)C(=O)NCC(=O)N[C@@H](CCCCN)C(N)=O) [AP537m],54.2%,0%,0%
Ac-RGN[dW]C[dE]S[dK]MNEYYGW[dM]L[dM]L[dT]MGR-NH2 (not fully specified (residue 5); printed as RGNwCeSkMNEYYGWmLmLtMGR) [AP505m],26.8%,16.4%,0%
Ac-RGN[dW]N[dE]S[dK]M[dN][dE][dY][dY]GW[dM]L[dM]C[dT]MGR-NH2 (SMILES CSCC[C@H](NC(=O)[C@@H](CCCCN)NC(=O)[C@H](CO)NC(=O)[C@@H](CCC(=O)O)NC(=O)[C@H](CC(N)=O)NC(=O)[C@@H](Cc1c[nH]c2ccccc12)NC(=O)[C@H](CC(N)=O)NC(=O)CNC(=O)[C@H](CCCNC(=N)N)NC(C)=O)C(=O)N[C@H](CC(N)=O)C(=O)N[C@H](CCC(=O)O)C(=O)N[C@H](Cc1ccc(O)cc1)C(=O)N[C@H](Cc1ccc(O)cc1)C(=O)NCC(=O)N[C@@H](Cc1c[nH]c2ccccc12)C(=O)N[C@H](CCSC)C(=O)N[C@@H](CC(C)C)C(=O)N[C@H](CCSC)C(=O)N[C@@H](CS)C(=O)N[C@@H](C(=O)N[C@@H](CCSC)C(=O)NCC(=O)N[C@@H](CCCNC(=N)N)C(N)=O)[C@H](C)O) [AP502m],23.8%,0%,0%
"Ac-RGN[dC]N[dE]S[dK]MNEYYGW[dM]L[dM]L[dT]MGR-NH2 (also: disulfide-linked homodimer (Cys4 to Cys4 of other copy), disulfide at 4, other end not in the chain) [AP504d]",100%,100%,64.3%
"Ac-RGN[dW]N[dE]S[dK]MNEYYGW[dM]L[dM]T[dC]MGR-NH2 (also: disulfide-linked homodimer (Cys20 to Cys20 of other copy), disulfide at 20, other end not in the chain) [AP503d]",100%,100%,70.1%
Ac-RGE[dL]N[dY]F[dW]MNEYYGW[dT]C[dN]M[dR]MGK-NH2 (also: homodimer: Cys17 disulfide-bonded to Cys17 of other copy) [AP536d],100%,85.2%,43.1%
Ac-[dR]G[dN]W[dN]E[dS]K[dM][dN][dE][dY][dY]G[dW]M[dL]M[dC]T[dM]G[dR]-NH2 (SMILES CSCC[C@H](NC(=O)[C@@H](Cc1c[nH]c2ccccc12)NC(=O)CNC(=O)[C@@H](Cc1ccc(O)cc1)NC(=O)[C@@H](Cc1ccc(O)cc1)NC(=O)[C@@H](CCC(=O)O)NC(=O)[C@@H](CC(N)=O)NC(=O)[C@@H](CCSC)NC(=O)[C@H](CCCCN)NC(=O)[C@@H](CO)NC(=O)[C@H](CCC(=O)O)NC(=O)[C@@H](CC(N)=O)NC(=O)[C@H](Cc1c[nH]c2ccccc12)NC(=O)[C@@H](CC(N)=O)NC(=O)CNC(=O)[C@@H](CCCNC(=N)N)NC(C)=O)C(=O)N[C@H](CC(C)C)C(=O)N[C@@H](CCSC)C(=O)N[C@H](CS)C(=O)N[C@H](C(=O)N[C@H](CCSC)C(=O)NCC(=O)N[C@H](CCCNC(=N)N)C(N)=O)[C@@H](C)O) [AP506m],67.6%,0%,0%
Ac-RGN[dW]N[dE]S[dK]MNEYYGW[dM]L[dM]T[dC]MGR-NH2 (SMILES CSCC[C@H](NC(=O)[C@@H](CCCCN)NC(=O)[C@H](CO)NC(=O)[C@@H](CCC(=O)O)NC(=O)[C@H](CC(N)=O)NC(=O)[C@@H](Cc1c[nH]c2ccccc12)NC(=O)[C@H](CC(N)=O)NC(=O)CNC(=O)[C@H](CCCNC(=N)N)NC(C)=O)C(=O)N[C@@H](CC(N)=O)C(=O)N[C@@H](CCC(=O)O)C(=O)N[C@@H](Cc1ccc(O)cc1)C(=O)N[C@@H](Cc1ccc(O)cc1)C(=O)NCC(=O)N[C@@H](Cc1c[nH]c2ccccc12)C(=O)N[C@H](CCSC)C(=O)N[C@@H](CC(C)C)C(=O)N[C@H](CCSC)C(=O)N[C@H](C(=O)N[C@H](CS)C(=O)N[C@@H](CCSC)C(=O)NCC(=O)N[C@@H](CCCNC(=N)N)C(N)=O)[C@@H](C)O) [AP503m],61.8%,16.2%,0%
Ac-RGE[dL]N[dY]F[dW]MNEYYGW[dT]C[dN]M[dR]MGK-NH2 (SMILES CSCC[C@H](NC(=O)[C@@H](CCCNC(=N)N)NC(=O)[C@H](CCSC)NC(=O)[C@@H](CC(N)=O)NC(=O)[C@H](CS)NC(=O)[C@H](NC(=O)[C@H](Cc1c[nH]c2ccccc12)NC(=O)CNC(=O)[C@H](Cc1ccc(O)cc1)NC(=O)[C@H](Cc1ccc(O)cc1)NC(=O)[C@H](CCC(=O)O)NC(=O)[C@H](CC(N)=O)NC(=O)[C@H](CCSC)NC(=O)[C@@H](Cc1c[nH]c2ccccc12)NC(=O)[C@H](Cc1ccccc1)NC(=O)[C@@H](Cc1ccc(O)cc1)NC(=O)[C@H](CC(N)=O)NC(=O)[C@@H](CC(C)C)NC(=O)[C@H](CCC(=O)O)NC(=O)CNC(=O)[C@H](CCCNC(=N)N)NC(C)=O)[C@H](C)O)C(=O)NCC(=O)N[C@@H](CCCCN)C(N)=O) [AP536m],74.1%,21.4%,0%
Ac-RGN[dW]N[dE]S[dK]MNEYYGW[dM]L[dM]C[dT]MGR-NH2 (also: disulfide-linked homodimer via Cys19) [AP501d],90%,81.4%,48.2%
Ac-RGN[dW]N[dE]S[dK]M[dN][dE][dY][dY]GW[dM]L[dM]C[dT]MGR-NH2 (also: disulfide-linked homodimer via Cys19) [AP502d],100%,88.4%,47.1%
Ac-RGN[dW]C[dE]S[dK]MNEYYGW[dM]L[dM]L[dT]MGR-NH2 (not fully specified (residue 5); printed as RGNwCeSkMNEYYGWmLmLtMGR; also: disulfide-linked homodimer via Cys5) [AP505d],100%,79.5%,51.4%
Ac-RGN[dC]N[dE]S[dK]MNEYYGW[dM]L[dM]L[dT]MGR-NH2 (SMILES CSCC[C@H](NC(=O)[C@@H](CCCCN)NC(=O)[C@H](CO)NC(=O)[C@@H](CCC(=O)O)NC(=O)[C@H](CC(N)=O)NC(=O)[C@@H](CS)NC(=O)[C@H](CC(N)=O)NC(=O)CNC(=O)[C@H](CCCNC(=N)N)NC(C)=O)C(=O)N[C@@H](CC(N)=O)C(=O)N[C@@H](CCC(=O)O)C(=O)N[C@@H](Cc1ccc(O)cc1)C(=O)N[C@@H](Cc1ccc(O)cc1)C(=O)NCC(=O)N[C@@H](Cc1c[nH]c2ccccc12)C(=O)N[C@H](CCSC)C(=O)N[C@@H](CC(C)C)C(=O)N[C@H](CCSC)C(=O)N[C@@H](CC(C)C)C(=O)N[C@@H](C(=O)N[C@@H](CCSC)C(=O)NCC(=O)N[C@@H](CCCNC(=N)N)C(N)=O)[C@H](C)O) [AP504m],30%,19.2%,0%
